Target: PDGF-α receptor, endogenous on C3H10T1/2 mouse embryonic fibroblasts (mouse) (UniProt P26618)
Test: cell-based or functional assay

Sequence of PDGF-α receptor, endogenous on C3H10T1/2 mouse embryonic fibroblasts (mouse) (P26618 25-1089): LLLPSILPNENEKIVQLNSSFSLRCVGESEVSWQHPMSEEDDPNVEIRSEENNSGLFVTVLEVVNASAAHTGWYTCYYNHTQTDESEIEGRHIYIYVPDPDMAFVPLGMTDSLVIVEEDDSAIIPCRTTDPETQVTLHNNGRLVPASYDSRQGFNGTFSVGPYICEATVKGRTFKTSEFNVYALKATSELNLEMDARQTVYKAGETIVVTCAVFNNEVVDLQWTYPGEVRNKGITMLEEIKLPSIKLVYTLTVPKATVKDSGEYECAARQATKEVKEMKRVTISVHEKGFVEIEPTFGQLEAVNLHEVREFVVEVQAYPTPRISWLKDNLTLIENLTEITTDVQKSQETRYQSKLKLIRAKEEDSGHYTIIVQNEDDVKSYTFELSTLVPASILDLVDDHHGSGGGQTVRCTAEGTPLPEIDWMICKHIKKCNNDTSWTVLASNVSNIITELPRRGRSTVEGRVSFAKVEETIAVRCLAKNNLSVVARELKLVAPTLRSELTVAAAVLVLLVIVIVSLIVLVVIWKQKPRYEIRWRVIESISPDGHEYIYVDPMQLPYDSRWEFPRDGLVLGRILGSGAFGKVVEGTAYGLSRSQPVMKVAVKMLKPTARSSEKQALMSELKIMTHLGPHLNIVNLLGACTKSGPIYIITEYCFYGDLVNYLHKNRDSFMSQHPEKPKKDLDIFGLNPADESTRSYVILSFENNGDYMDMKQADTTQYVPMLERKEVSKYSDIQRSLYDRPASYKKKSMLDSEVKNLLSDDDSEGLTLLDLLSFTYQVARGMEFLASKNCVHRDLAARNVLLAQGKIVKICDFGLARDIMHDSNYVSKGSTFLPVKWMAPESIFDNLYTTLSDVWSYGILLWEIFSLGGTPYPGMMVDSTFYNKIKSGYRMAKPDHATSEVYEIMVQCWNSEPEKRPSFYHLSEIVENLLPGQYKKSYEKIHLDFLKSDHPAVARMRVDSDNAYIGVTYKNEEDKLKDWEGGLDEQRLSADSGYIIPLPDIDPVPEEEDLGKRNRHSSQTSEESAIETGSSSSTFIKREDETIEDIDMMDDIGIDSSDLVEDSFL

- decrease in responses to sub-maximal concentrations of PDGF-BB (relative nuclear intensity of the FoxO1-clover reporter in C3H10T1/2 cells): 10%
Substance: neutralizing antibody to the PDGF-α receptor (#AF1062, R&D Systems)

— US20160290995A1, “METHODS OF SELECTING AKT AGONISTS OR ANTAGONISTS” (OREGON HEALTH & SCIENCE UNIVERSITY, priority 2015, published 2016)
